Test results from US20210041163A1 (Hoffmann-La Roche, published 2021).

Target: T1, human neonatal Fc receptor (FcRn), FcRn beta-2-microglobulin complex (human, UniProt P55899 24-297; P61769 21-119)
T1 construct: also called human FcRn
Assay: SPR-based binding assay, relative to the reference antibody

T1 sequence (P55899 24-297 limits assumed, chain 1 of 2): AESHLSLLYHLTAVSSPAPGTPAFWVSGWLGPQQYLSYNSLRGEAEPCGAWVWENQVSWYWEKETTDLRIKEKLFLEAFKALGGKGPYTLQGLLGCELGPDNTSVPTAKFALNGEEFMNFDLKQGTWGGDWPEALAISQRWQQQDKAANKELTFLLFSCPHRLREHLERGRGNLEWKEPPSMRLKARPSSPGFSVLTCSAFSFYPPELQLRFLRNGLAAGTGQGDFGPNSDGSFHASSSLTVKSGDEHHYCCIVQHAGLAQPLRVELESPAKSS
T1 sequence (P61769 21-119 limits assumed, chain 2 of 2): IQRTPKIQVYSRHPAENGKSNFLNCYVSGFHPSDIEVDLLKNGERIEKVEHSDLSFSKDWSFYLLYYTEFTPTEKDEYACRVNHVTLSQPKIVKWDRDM

B1: anti-digoxygenin antibody variant 7 (LC-G57R and LC-S60K) (antibody, human IgG1, kappa, name in Kabat numbering)
heavy: not shown
light: DIQMTQSPSSLSASVGDRVTITCRASQDIKNYLNWYQQKPGKAPKLLIYYSSTLLSRVPKRFSGSGSGTDFTLTISSLQPEDFATYYCQQSITLPPTFGGGTKVEIKRRTVAAPSVFIFPPSDEQLKSGTASVVCLLNNFYPREAKVQWKVDNALQSGNSQESVTEQDSKDSTYSLSSTLTLSKADYEKHKVYACEVTHQGLSSPVTKSFNRGEC
notes: Variant of m1
In the case of B1, the “relative SPR binding” value is reported as 161%.
